For test [1], the target named is Eco RNAP β subunit (Escherichia coli, UniProt P0A8V2 1-1342). Description: cryo-EM structure.
For test [2], the target named is Eco RNAP β' subunit (β'-PPX-His10) (Escherichia coli, UniProt P0A8T7 1-1407). As to the kind of experiment: cryo-EM structure.

Experimental findings from PMC11996608 (Nature structural & molecular biology, 2025) are described below.

Sequence of Eco RNAP β subunit (P0A8V2 whole entry): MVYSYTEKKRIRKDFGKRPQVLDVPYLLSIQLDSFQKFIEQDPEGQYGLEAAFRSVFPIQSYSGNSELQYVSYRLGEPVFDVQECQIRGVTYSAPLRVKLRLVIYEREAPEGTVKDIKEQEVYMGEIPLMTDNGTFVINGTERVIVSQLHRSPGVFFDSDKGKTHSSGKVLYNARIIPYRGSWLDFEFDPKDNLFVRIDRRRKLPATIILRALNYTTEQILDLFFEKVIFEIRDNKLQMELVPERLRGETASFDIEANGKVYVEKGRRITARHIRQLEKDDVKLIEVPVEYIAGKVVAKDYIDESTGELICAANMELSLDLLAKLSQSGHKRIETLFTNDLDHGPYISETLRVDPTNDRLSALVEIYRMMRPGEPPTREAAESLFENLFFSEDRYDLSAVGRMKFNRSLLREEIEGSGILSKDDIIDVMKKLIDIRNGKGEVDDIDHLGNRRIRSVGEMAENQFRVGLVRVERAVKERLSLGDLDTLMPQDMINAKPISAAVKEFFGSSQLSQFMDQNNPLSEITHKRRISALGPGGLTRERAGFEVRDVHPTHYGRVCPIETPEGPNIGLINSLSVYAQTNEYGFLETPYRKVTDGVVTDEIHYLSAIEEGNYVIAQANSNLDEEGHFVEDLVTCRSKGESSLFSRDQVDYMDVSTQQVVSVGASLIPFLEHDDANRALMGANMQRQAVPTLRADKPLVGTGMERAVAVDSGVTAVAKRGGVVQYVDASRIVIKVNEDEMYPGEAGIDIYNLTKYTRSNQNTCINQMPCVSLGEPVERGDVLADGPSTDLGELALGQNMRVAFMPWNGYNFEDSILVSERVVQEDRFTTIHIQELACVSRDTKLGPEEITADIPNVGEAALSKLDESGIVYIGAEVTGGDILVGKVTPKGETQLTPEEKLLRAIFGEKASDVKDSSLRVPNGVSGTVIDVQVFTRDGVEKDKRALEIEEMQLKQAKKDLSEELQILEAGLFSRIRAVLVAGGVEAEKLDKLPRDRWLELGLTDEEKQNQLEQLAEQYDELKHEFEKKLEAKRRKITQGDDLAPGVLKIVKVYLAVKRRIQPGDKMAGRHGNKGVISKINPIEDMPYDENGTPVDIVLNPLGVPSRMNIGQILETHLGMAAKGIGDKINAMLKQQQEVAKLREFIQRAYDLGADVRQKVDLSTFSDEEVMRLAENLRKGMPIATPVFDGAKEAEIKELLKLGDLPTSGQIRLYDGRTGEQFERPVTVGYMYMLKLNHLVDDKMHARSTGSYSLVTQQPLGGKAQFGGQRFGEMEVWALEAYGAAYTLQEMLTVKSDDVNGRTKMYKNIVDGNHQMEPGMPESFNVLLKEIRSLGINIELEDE
Sequence of Eco RNAP β' subunit (β'-PPX-His10) (P0A8T7 whole entry): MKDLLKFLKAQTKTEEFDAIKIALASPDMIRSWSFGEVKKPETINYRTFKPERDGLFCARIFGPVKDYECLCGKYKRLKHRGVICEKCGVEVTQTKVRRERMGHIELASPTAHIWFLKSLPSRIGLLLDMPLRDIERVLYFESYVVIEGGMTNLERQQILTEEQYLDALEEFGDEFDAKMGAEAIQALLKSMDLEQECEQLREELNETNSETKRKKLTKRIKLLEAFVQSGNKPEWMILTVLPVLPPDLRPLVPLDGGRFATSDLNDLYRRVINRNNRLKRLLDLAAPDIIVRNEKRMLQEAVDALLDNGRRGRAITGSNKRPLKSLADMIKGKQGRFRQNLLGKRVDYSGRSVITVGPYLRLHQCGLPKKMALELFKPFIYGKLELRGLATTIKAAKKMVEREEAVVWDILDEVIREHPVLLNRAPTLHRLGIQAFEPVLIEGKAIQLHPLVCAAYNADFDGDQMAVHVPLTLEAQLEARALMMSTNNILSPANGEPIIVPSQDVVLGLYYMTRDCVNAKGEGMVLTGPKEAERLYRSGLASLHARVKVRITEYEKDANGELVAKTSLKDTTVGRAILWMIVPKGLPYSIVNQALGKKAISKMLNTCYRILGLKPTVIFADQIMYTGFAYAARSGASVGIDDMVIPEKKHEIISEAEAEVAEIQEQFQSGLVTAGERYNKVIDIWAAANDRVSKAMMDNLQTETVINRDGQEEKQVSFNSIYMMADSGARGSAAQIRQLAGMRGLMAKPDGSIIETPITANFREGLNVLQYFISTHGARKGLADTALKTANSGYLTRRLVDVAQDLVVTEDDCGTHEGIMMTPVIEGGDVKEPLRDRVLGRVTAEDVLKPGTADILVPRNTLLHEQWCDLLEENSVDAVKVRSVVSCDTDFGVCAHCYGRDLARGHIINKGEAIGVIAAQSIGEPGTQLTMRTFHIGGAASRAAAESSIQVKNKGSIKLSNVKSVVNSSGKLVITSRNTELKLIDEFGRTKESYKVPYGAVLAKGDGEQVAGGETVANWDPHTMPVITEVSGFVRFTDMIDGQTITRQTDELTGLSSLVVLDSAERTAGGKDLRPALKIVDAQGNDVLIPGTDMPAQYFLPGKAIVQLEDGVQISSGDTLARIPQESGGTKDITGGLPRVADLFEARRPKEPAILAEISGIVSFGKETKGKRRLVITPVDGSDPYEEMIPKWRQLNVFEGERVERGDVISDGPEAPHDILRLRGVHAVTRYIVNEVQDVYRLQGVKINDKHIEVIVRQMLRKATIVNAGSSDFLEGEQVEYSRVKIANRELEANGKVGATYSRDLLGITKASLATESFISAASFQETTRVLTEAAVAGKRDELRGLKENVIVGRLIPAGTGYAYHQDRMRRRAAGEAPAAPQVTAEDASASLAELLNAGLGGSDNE

B1: Eco RapA (N-terminally His6-tagged full-length RapA) (enzyme, Escherichia coli, UniProt P60240 1-968, looked up)
chain: MPFTLGQRWISDTESELGLGTVVAVDARTVTLLFPSTGENRLYARSDSPVTRVMFNPGDTITSHDGWQMQVEEVKEENGLLTYIGTRLDTEESGVALREVFLDSKLVFSKPQDRLFAGQIDRMDRFALRYRARKYSSEQFRMPYSGLRGQRTSLIPHQLNIAHDVGRRHAPRVLLADEVGLGKTIEAGMILHQQLLSGAAERVLIIVPETLQHQWLVEMLRRFNLRFALFDDERYAEAQHDAYNPFDTEQLVICSLDFARRSKQRLEHLCEAEWDLLVVDEAHHLVWSEDAPSREYQAIEQLAEHVPGVLLLTATPEQLGMESHFARLRLLDPNRFHDFAQFVEEQKNYRPVADAVAMLLAGNKLSNDELNMLGEMIGEQDIEPLLQAANSDSEDAQSARQELVSMLMDRHGTSRVLFRNTRNGVKGFPKRELHTIKLPLPTQYQTAIKVSGIMGARKSAEDRARDMLYPERIYQEFEGDNATWWNFDPRVEWLMGYLTSHRSQKVLVICAKAATALQLEQVLREREGIRAAVFHEGMSIIERDRAAAWFAEEDTGAQVLLCSEIGSEGRNFQFASHMVMFDLPFNPDLLEQRIGRLDRIGQAHDIQIHVPYLEKTAQSVLVRWYHEGLDAFEHTCPTGRTIYDSVYNDLINYLASPDQTEGFDDLIKNCREQHEALKAQLEQGRDRLLEIHSNGGEKAQALAESIEEQDDDTNLIAFAMNLFDIIGINQDDRGDNMIVLTPSDHMLVPDFPGLSEDGITITFDREVALAREDAQFITWEHPLIRNGLDLILSGDTGSSTISLLKNKALPVGTLLVELIYVVEAQAPKQLQLNRFLPPTPVRMLLDKNGNNLAAQVEFETFNRQLNAVNRHTGSKLVNAVQQDVHAILQLGEAQIEKSARALIDAARNEADEKLSAELSRLEALRAVNPNIRDDELTAIESNRQQVMESLDQAGWRLDALRLIVVTHQ
Turning to B1, the binding result in test [1] and in test [2] was “binds” throughout.
